1 protein from paper PMC11211662, “A novel alcohol dehydrogenase in the hyperthermophilic crenarchaeon Hyperthermus butylicus” (mLife, 2024) can be followed below.

Assay in all cases: purified protein
Substrate in data set [1]: CC=O
The data set is classed as biochemical, Hyperthermus butylicus. The note with it: reduction, 0.2 mM NADPH, 100 mM PIPES pH 6.0, 80 °C, anaerobic, pH 6.0.

Substrate in data set [2]: CCCO
The data set is classed as biochemical, Hyperthermus butylicus. The conditions noted are these: oxidation, 0.4 mM NADP+, 100 mM EPPS pH 9.0, 80 °C, anaerobic, pH 9.0.

Substrate in data set [3]: CC(C)=O
The data set is classed as biochemical, Hyperthermus butylicus. The note with it: reduction, 0.2 mM NADPH, 100 mM PIPES pH 6.0, 80 °C, anaerobic, pH 6.0.

Substrate in data set [4]: CCCCO
The data set is classed as biochemical, Hyperthermus butylicus. The conditions noted are these: oxidation, 0.4 mM NADP+, 100 mM EPPS pH 9.0, 80 °C, anaerobic, pH 9.0.

Substrate in data set [5]: CCCC=O
It counts as biochemical, Hyperthermus butylicus. The conditions noted are these: reduction, 0.2 mM NADPH, 100 mM PIPES pH 6.0, 80 °C, anaerobic, pH 6.0.

Substrate in data set [6]: CCC=O
The data set is classed as biochemical, Hyperthermus butylicus. The note with it: reduction, 0.2 mM NADPH, 100 mM PIPES pH 6.0, 80 °C, anaerobic, pH 6.0.

Substrate in data set [7]: CCO
The note with it: oxidation, 0.4 mM NADP+, 100 mM EPPS pH 9.0, 80 °C, anaerobic.

Substrate in data set [8]: CC(C)O
The conditions noted are these: oxidation, 0.4 mM NADP+, 100 mM EPPS pH 9.0, 80 °C, anaerobic.

The term Km denotes the concentration of substrate that gives half-maximal velocity. One may read the kcat as the maximal rate divided by the concentration of active sites. What is called kcat/Km is the second-order rate constant that governs catalysis at low substrate concentration.

B1: HbADH2 (Hyperthermus butylicus DSM 5456) (protein)
chain: MLRRLQSSLRDYVRKYIVRLNCNAGGTTCKPSSTECQRFLAEPNLPQALLLAGYRLLDCTCSSGGGVSIELVGTSGDTIPARLCLDCGSIFPALTLKAQLPLSTSIPPYRGPIQEAMLKTVETIAQFCAHRKGLPLLLDTVLAEPARMCKVKLGCRPIHISSFEKADLGTVSPRIKLPTILSWITLRLRKSIEIEAPWLCVESNNGALQLVCLSETCRFEVTHCGSVRLIHGKAIALPSSTRCSPALLHLVYLYGTLYKSIDDVNVKPCIWSMTGLAILGAWYSTGENGESMMLLVWNPLKKSKLHEIVFERHRIVEAKLTSPATWLEEQLIPQYNRLRIPLPPHGARLVYVRLRKLPRLLSKNANG
notes: native protein purified anaerobically from H. butylicus cell-free extract (DEAE-Sepharose, hydroxyapatite, phenyl-Sepharose); untagged; 367 residues deduced, 40,694 Da calculated; gene assigned by mass spectrometry of the gel band, not by recombinant expression
For the protein B1, the Km in the data set “purified protein [1]” worked out at 1270 ± 180 µM; in the data set “purified protein [2]” it was 4690 ± 410 µM; in the data set “purified protein [3]” it was 680 ± 40 µM; in the data set “purified protein [4]”, 2440 ± 300 µM; in “purified protein [5]”, 590 ± 70 µM; in the data set “purified protein [6]” it was 1550 ± 200 µM. The Km in “purified protein [7]” is 4360 ± 420 µM; in the data set “purified protein [8]”, 3740 ± 460 µM. In addition, the kcat was 7 ± 0.31 s⁻¹ in “purified protein [1]”; 4.4 ± 0.12 s⁻¹ in the data set “purified protein [2]”; 3.84 ± 0.06 s⁻¹ in “purified protein [3]”; 6.84 ± 0.24 s⁻¹ in the data set “purified protein [4]”; 8 ± 0.22 s⁻¹ in the data set “purified protein [5]”; 1.79 ± 0.07 s⁻¹ in the data set “purified protein [6]”. The kcat in “purified protein [7]” is 4 s⁻¹; in the data set “purified protein [8]”, 3.47 s⁻¹. The kcat/Km in “purified protein [1]” is 5510 ± 1720 M⁻¹ s⁻¹; in the data set “purified protein [2]” it was 938 ± 293 M⁻¹ s⁻¹; in the data set “purified protein [3]” it was 8070 ± 1520 M⁻¹ s⁻¹; in the data set “purified protein [4]” it was 2800 ± 814 M⁻¹ s⁻¹; in “purified protein [5]” it was 13600 ± 3140 M⁻¹ s⁻¹; in the data set “purified protein [6]”, 1160 ± 338 M⁻¹ s⁻¹. The figures for the specificity constant (kcat/Km) in the data set “purified protein [7]” and in the data set “purified protein [8]” were 915 M⁻¹ s⁻¹ and 928 M⁻¹ s⁻¹, respectively.
